Source: patent publication US20150140169
Where a chain is given by its changes, count along the chain named. In names and notes the source's numbering stands.

T1: alpha-s1 casein from Bos taurus
T1 chain: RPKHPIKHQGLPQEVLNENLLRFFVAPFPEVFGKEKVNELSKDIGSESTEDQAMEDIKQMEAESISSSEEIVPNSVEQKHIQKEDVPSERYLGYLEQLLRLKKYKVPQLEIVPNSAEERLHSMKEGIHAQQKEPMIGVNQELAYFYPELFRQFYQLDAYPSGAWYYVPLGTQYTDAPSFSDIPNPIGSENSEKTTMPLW

B1: bovine chymosin B variant #6 (K221M) (protein)
chain: GEVASVPLTNYLDSQYFGKIYLGTPPQEFTVLFDTGSSDFWVPSIYCKSNACKNHQRFDPRKSSTFQNLGKPLSIHYGTGSMQGILGYDTVTVSNIVDIQQTVGLSTQEPGDVFTYAEFDGILGMAYPSLASEYSIPVFDNMMNRHLVAQDLFSVYMDRNGQESMLTLGAIDPSYYTGSLHWVPVTVQQYWQFTVDSVTISGVVVACEGGCQAILDTGTSMLVGPSSDILNIQQAIGATQNQYGEFDIDCDNLSYMPTVVFEINGKMYPLTPSAYTSQDQGFCTSGFQSENHSQKWILGDVFIREYYSVFDRANNLVGLAKAI
B2: bovine chymosin B variant #71 (A51V, K221V) (protein)
chain: B1 chain with A51V, M221V
B3: bovine chymosin B variant #7 (K221V) (protein)
chain: B1 chain with M221V
B4: camel chymosin variant #152 (D290G) (protein)
chain: GKVAREPLTSYLDSQYFGKIYIGTPPQEFTVVFDTGSSDLWVPSIYCKSNVCKNHHRFDPRKSSTFRNLGKPLSIHYGTGSMEGFLGYDTVTVSNIVDPNQTVGLSTEQPGEVFTYSEFDGILGLAYPSLASEYSVPVFDNMMDRHLVARDLFSVYMDRNGQGSMLTLGAIDPSYYTGSLHWVPVTLQQYWQFTVDSVTINGVAVACVGGCQAILDTGTSVLFGPSSDILKIQMAIGATENRYGEFDVNCGNLRSMPTVVFEINGRDYPLSPSAYTSKDQGFCTSGFQGGNNSELWILGDVFIREYYSVFDRANNRVGLAKAI
B5: camel chymosin variant #153 (D290L) (protein)
chain: B4 chain with G290L
B6: camel chymosin variant #162 (L295R) (protein)
chain: B4 chain with G290D, L295R
B7: camel chymosin variant #160 (L295K) (protein)
chain: B4 chain with G290D, L295K
B8: camel chymosin variant #161 (L295M) (protein)
chain: B4 chain with G290D, L295M
B9: camel chymosin variant #165 (L295W) (protein)
chain: B4 chain with G290D, L295W
B10: camel chymosin variant #157 (D290T) (protein)
chain: B4 chain with G290T
B11: camel chymosin variant #167 (I297V) (protein)
chain: B4 chain with G290D, I297V
B12: camel chymosin variant #154 (D290M) (protein)
chain: B4 chain with G290M
B13: camel chymosin variant #164 (L295Y) (protein)
chain: B4 chain with G290D, L295Y
B14: camel chymosin variant #159 (L295I) (protein)
chain: B4 chain with G290D, L295I
B15: camel chymosin variant #163 (L295T) (protein)
chain: B4 chain with G290D, L295T
B16: camel chymosin variant #155 (D290Q) (protein)
chain: B4 chain with G290Q
B17: camel chymosin variant #166 (I297T) (protein)
chain: B4 chain with G290D, I297T
B18: Chymax M (recombinant camel chymosin) (protein)
chain: B4 chain with G290D
B19: camel chymosin variant #156 (D290S) (protein)
chain: B4 chain with G290S
B20: camel chymosin variant #158 (L295F) (protein)
chain: B4 chain with G290D, L295F

Biological target: T1, alpha-s1 casein from Bos taurus

Protein | hydrolysis of the first cut in alpha-s1-casein | small, 6 hours, 11° C. | small, 24 hours, 11° C. | αs1-I CN, 6 hours, 11° C. | αs1-I CN, 24 hours, 11° C. | αs1-I CN/αs1 CN, 6 hours, 11° C. | αs1-I CN/αs1 CN, 24 hours, 11° C. | αs1 CN, 6 hours, 11° C. | αs1 CN, 24 hours, 11° C. | small, 16 hours, 30° C.
B1 | show a clear hydrolysis of the first cut in alpha-s1-casein, leading to a rapid formation of fragment alpha-s1-I casein | 0 Volume | 4.3e+06 Volume | 1.89e+07 Volume | 2.22e+07 Volume | 1 | 4.3 | 1.81e+07 Volume | 5.1e+06 Volume | 
B2 | show a clear hydrolysis of the first cut in alpha-s1-casein, leading to a rapid formation of fragment alpha-s1-I casein | 0 Volume | 0 Volume | 2.54e+07 Volume | 2.46e+07 Volume | 2.9 | 9.8 | 8.8e+06 Volume | 2.5e+06 Volume | 2.4e+06 Volume
B3 | show a clear hydrolysis of the first cut in alpha-s1-casein, leading to a rapid formation of fragment alpha-s1-I casein | 0 Volume | 1.05e+07 Volume | 2.28e+07 Volume | 1.82e+07 Volume | 2.1 | 6.4 | 1.07e+07 Volume | 2.8e+06 Volume | 
B4 |  |  |  | 2.18e+07 Volume | 3.33e+07 Volume |  |  | 2.51e+07 Volume | 9.7e+06 Volume | 
B5 |  |  |  | 2.35e+07 Volume | 3.49e+07 Volume |  |  | 2.36e+07 Volume | 7.1e+06 Volume | 
B6 |  |  |  | 1.65e+07 Volume | 3.1e+07 Volume |  |  | 3.09e+07 Volume | 1.67e+07 Volume | 
B7 |  |  |  | 1.81e+07 Volume | 2.49e+07 Volume |  |  | 2.95e+07 Volume | 1.2e+07 Volume | 
B8 |  |  |  | 1.96e+07 Volume | 2.23e+07 Volume |  |  | 3.15e+07 Volume | 1.1e+07 Volume | 
B9 |  |  |  | 3.09e+07 Volume | 3.78e+07 Volume |  |  | 2.12e+07 Volume | 5.7e+06 Volume | 
B10 |  |  |  | 1.76e+07 Volume | 2.38e+07 Volume |  |  | 3.07e+07 Volume | 1.36e+07 Volume | 
B11 |  |  |  | 2.02e+07 Volume | 2.29e+07 Volume |  |  | 2.73e+07 Volume | 8e+06 Volume | 
B12 |  |  |  | 2.69e+07 Volume | 3.77e+07 Volume |  |  | 2.52e+07 Volume | 8.3e+06 Volume | 
B13 |  |  |  | 1.59e+07 Volume | 2.66e+07 Volume |  |  | 2.49e+07 Volume | 1.49e+07 Volume | 
B14 |  |  |  | 1.7e+07 Volume | 1.97e+07 Volume |  |  | 2.95e+07 Volume | 1.11e+07 Volume | 
B15 |  |  |  | 1.48e+07 Volume | 1.79e+07 Volume |  |  | 2.79e+07 Volume | 1.14e+07 Volume | 
B16 |  |  |  | 2.03e+07 Volume | 3.36e+07 Volume |  |  | 3.02e+07 Volume | 1.35e+07 Volume | 
B17 |  |  |  | 1.8e+07 Volume | 1.33e+07 Volume |  |  | 2.1e+07 Volume | 4.2e+06 Volume | 
B18 | shows a slow first cut in alpha-s1 casein | 0 Volume | 1.1e+07 Volume | 1.28e+07 Volume | 1.62e+07 Volume | 0.5 | 1.3 | 2.73e+07 Volume | 1.25e+07 Volume | 9e+06 Volume
B19 |  |  |  | 1.7e+07 Volume | 3.16e+07 Volume |  |  | 3.15e+07 Volume | 1.71e+07 Volume | 
B20 |  |  |  | 1.95e+07 Volume | 2.22e+07 Volume |  |  | 2.63e+07 Volume | 9.8e+06 Volume | 

Same assay, conditions: not given

Protein | αs1-I CN, 16 hours, 30° C. | αs1 CN, 16 hours, 30° C. | (αSN1-1)/(αSN1), 6 hours, 11° C. | (αSN1-1)/(αSN1), 24 hours, 11° C. | (αSN1-1)/(αSN1), 6 hours, 11° C. (average) | (αSN1-1)/(αSN1), 24 hours, 11° C. (average) | αs1-I CN, 6 hours, 11° C. (average) | αs1-I CN, 24 hours, 11° C. (average) | αs1 CN, 6 hours, 11° C. (average) | αs1 CN, 24 hours, 11° C. (average)
B2 | 1.97e+07 Volume | 1.6e+06 Volume |  |  |  |  |  |  |  | 
B4 |  |  | 0.9 | 3.4 |  |  |  |  |  | 
B5 |  |  | 1 | 4.9 |  |  |  |  |  | 
B6 |  |  | 0.5 | 1.9 |  |  |  |  |  | 
B7 |  |  | 0.6 | 2.1 |  |  |  |  |  | 
B8 |  |  | 0.6 | 2 |  |  |  |  |  | 
B9 |  |  | 1.5 | 6.7 |  |  |  |  |  | 
B10 |  |  | 0.6 | 1.7 |  |  |  |  |  | 
B11 |  |  | 0.7 | 2.9 |  |  |  |  |  | 
B12 |  |  | 1.1 | 4.6 |  |  |  |  |  | 
B13 |  |  | 0.6 | 1.8 |  |  |  |  |  | 
B14 |  |  | 0.6 | 1.8 |  |  |  |  |  | 
B15 |  |  | 0.5 | 1.6 |  |  |  |  |  | 
B16 |  |  | 0.7 | 2.5 |  |  |  |  |  | 
B17 |  |  | 0.9 | 3.1 |  |  |  |  |  | 
B18 | 4.3e+06 Volume | 0 Volume |  |  | 0.5 | 1.2 | 1.81e+07 Volume | 2.13e+07 Volume | 3.52e+07 Volume | 1.73e+07 Volume
B19 |  |  | 0.5 | 1.9 |  |  |  |  |  | 
B20 |  |  | 0.7 | 2.3 |  |  |  |  |  | 
